In patent US20100166772A1, “ANTIGEN-BINDING PROTEINS TARGETING S. AUREUS ORF0657n” (priority 2007, published 2010):

Legend:
S. aureus = test: Opsonophagocytosis activity (OPA) assay with HL60_DMF cells; type: cell-based; conditions: FIGS. 4 and 5
Description: An opsonophagocytosis activity (OPA) assay was developed to evaluate an antibody's ability to opsonophagocytose. The assay measures the ability of antibodies to bind and fix complement (C′) to the bacterial surface, which results in an increase in the level of phagocytosis of these bacteria by granulocytic effecter cells.
ORF0657n is an iron regulated protein on the surface of S. aureus that appears to be involved in heme/Fe acquisition. […] For this assay the strain is iron starved to increase the expression of ORF0657n. This strain also lacks the ability to produce Protein A. Protein A can bind to the Fc portion of any IgG and the presence of this non-specifically bound antibody could interfere in the OPA reaction.
HL60 cells were exposed to dimethylformamide (DMF) for five to six days to induce the cells to differentiate towards a more granulocytic phenotype. Next, 2% C′-sufficient gnotobiotic pig serum was added to the antibody bound cells. Finally, the antibody and C′ exposed cells were then labeled with the fluorescent chemical 5′, 6′-FAM-SE.
After incubation of opsonized, fluorescently-labeled bacteria and unlabeled HL60_DMF cells, the level of phagocytosis was determined by measuring the percentage of HL60_DMF cells containing labeled bacteria by flow cytometry. […]

ORF0657n = conditions: Luminex binding assay
Description: Construction of ORF0657n-bead—9.4×10^6 Radix maleimide microspheres (Georgetown, Tex.) were coupled to 750 μg ORF0657n-Se (ORF0657n containing carboxyl terminal cysteine group) at room temperature for 2 hours. Beads were washed 3 times with 1 ml PBS and then quenched with 1 M N-acetyl-L-cysteine (Sigma) for 2 hours at room temperature. Microspheres were washed 3× in PBS. Beads were enumerated and re-suspended at a final concentration of 500 microspheres/μl.
Detection of Competition between CAT ScFvs and CAT mAbs—CAT scFvs were individually competed against the CAT antibodies in the Luminex cLIA assay. ScFvs were diluted 1:4, 1:8, 1:16 and 1:32 in PBS-TBN (0.05% Tween 20, 1% BSA and 0.05% sodium azide) and incubated with 5000 ORF0657n-coupled microspheres in a Multiscreen filter plate (Millipore) for 1 hour, 15 minutes at room temperature. The beads were then washed 3× with PBS with 0.05% Tween 20 (PBS/Tween20). The individual antibodies were diluted in PBS-TBN to a final concentration of 2 μg/ml and added to separate plates. […] Microspheres were re-suspended in PBS/Tween20 and the median fluorescent signal was read using a Bio-Plex luminometer (BioRad). ScFvs were considered competitive if the median fluorescent signal was reduced by at least 30% over the signal detected for non-competitive scFvs for at least two dilutions.

B1: mAb CS-D10: IgG1 antibody, light chain variable region SEQ ID NO: 5, heavy chain variable region SEQ ID NO: 6, lambda (antibody, V domains shown)
VH: QVQLQESGPGLVKPSETLSLTCTVSGGSIRSSSYYWGWFRQTPGKGLEWLGNVFFSGSAYYNPSLKSRVTISIDTSENQSSLKLTSVTAADTAVYYCARPQAYSHDSSGHSPFDLWGRGTMVTVSS
VL: QAVLTQPSSVSGAPGQRVTISCTGGSSNIGAGYDVHWYQQIPGTAPKLLIYGNSNRPSGVPDRFSGSKSGTSASLAITGLQAEDEADYYCQSYDSSLNGPVVFGGGTKVTVLG
modifications: mAb CS-C10 heavy chain variable region; mAb CS-C10 light chain variable region
opsonic activity compared to isotype control (S. aureus): higher opsonic activity compared to their IgG1 isotype control
mAbs compete for binding to the same epitope (ORF0657n): compete for binding to the same epitope
